The values that follow come from publication doi:10.1101/2025.11.04.686567, “Models for the architecture of the human inner kinetochore CCAN complex on centromeric α-satellite CENP-A nucleosome arrays”.

This data set addresses CCAN (CENP-C, CENP-LN, CENP-HIKM, CENP-OPQUR, CENP-TWSX) (Homo sapiens, UniProt Q03188;Q8N0S6;Q96H22;Q9H3R5;Q92674;Q9BS16;Q9NSP4;Q9BU64;Q6IPU0;Q7L2Z9;Q71F23;Q13 …). The experiment in a line: cryo-EM; mild cross-linking; 3.5 A; SEC on Superose 6 Increase or Agilent Bio SEC-5 1000A; buffer, salt, pH and temperature not given in the material. Conditions: protein: recombinant; copies: 1;1;1;1;1;1;1;1;1;1;1;1;1;1;1;1.

B1: native alpha-satellite 171 bp DNA (dsDNA)
DNA 1: CCGCTTTGAGGCCTTCGTTGGAAACGGGAATATGTTCACATAAAAACTAGACAGAAGCATTCTCAGAAACTTCTATGTGATGTTTGCATTCAACTCATAGAGTTGAACATTCCTTTTCATAGAGCAGTTTTGAAACACTCTTTTTGTAGTATCTGGAATTGGACATTTGGA
DNA 2: TCCAAATGTCCAATTCCAGATACTACAAAAAGAGTGTTTCAAAACTGCTCTATGAAAAGGAATGTTCAACTCTATGAGTTGAATGCAAACATCACATAGAAGTTTCTGAGAATGCTTCTGTCTAGTTTTTATGTGAACATATTCCCGTTTCCAACGAAGGCCTCAAAGCGG
With B1, the binding result is reported as “binds”.
